This data set deals with T1, His-NrtR (Pseudomonas aeruginosa PAK), ORF:d24b93ef.
T1 sequence: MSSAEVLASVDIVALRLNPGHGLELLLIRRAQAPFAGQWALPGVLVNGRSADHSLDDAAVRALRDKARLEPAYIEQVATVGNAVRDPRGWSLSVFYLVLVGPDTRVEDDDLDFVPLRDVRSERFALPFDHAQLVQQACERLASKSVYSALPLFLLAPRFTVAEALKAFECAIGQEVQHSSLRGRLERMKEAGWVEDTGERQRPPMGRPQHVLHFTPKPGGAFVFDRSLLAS
As to the kind of experiment: EMSA. To be noted: 10 mM Tris, 1 mM DTT, pH 7.5, […]. Background: A gel shift assay detects complexes by their altered migration in electrophoresis.
As for “CAGGAGTGATATTAGCGATTCCCAGTGCTCCCGCAACCTGCCAGAAAACCCAGCGAAGCTTCTTCGGCAGCCATTTTAGAAAAATATATTCCTTTAATTTCAATAAGTTACTTAAATTCACCGAGCGTTTTTGGCAAACCTCCCGGGCATTTATCTACTTAGGCTCACACGCCGTGTAAGTTAATGCTTACAAGAGCAGACACAAAAAACCCGGCGAACGCCGGGTCTTCAGTGGGTCTAAGGTTTTCCG (double strand) [rsmZ promoter fragment]”, the binding entry is recorded as “binds”.
For “CCGCGTTGCCGACCGTGGCCACCTGCTCGATGTAGGCCGGCTCCAGCCGCGCCTTGTCGCGCAGGGCGCGCACCGCCGCGTCGTCGAGGCTGTGGTCGGCGCTGCGGCCGTTGACCAGCACGCCGGGCAAGGCCCACTGGCCGGCGAAAGGCGCCTGGGCGCGGCGGATCAGCAACA (double strand) [nrtR coding fragment]” the value was “no binding”; for “GCTGGGAAGGCTCGCGATGATGAGGGGACTGGCCACTGTAGCGGGCCCGGCGCAGATCATCTTGACGCACGGCAAGCTCCCGGCGGCTGGGTGTTGCCGTCGGTCCGGCGAGCGGAACTATTACAGCGTGTAAGCCAAGGCTTACAAACGGCGGTGGTTTTGGCTGCTTTCTCCCCCTCGCGGAGATGCGTAATCTTCAAACCGTCAGGACATTGCGCAGGAAGCGCCAAAGACAATACGG (double strand) [rsmY promoter fragment]”, “binds”; for “AGAAAATACCTTCCACTGCGAAATTTTGTAGTACAAGTGCTTGACGACTTATTTCACGTGATGAATTATGTACCCACATTCAGCCCCAACCCGTCAAGCGGAGGCTTCC (double strand) [nadD2 promoter fragment]”, “binds”.

The values above are taken from paper PMC8865458.
